In patent publication US7399869B2, “Fibroblast activation protein inhibitor compounds and methods” (Genentech, Inc., priority 2005, dated 2008):

Key:
[1] = substrate: CC(=O)NCC(=O)N1CCCC1C(=O)Nc1ccc2c(C(F)(F)F)c(CC(N)=O)c(=O)oc2c1; experiment: Hydrolysis of C-terminal coumarin dipeptide substrates by DPP-4 (kinetic constants); type: biochemical; settings: other: DPP-4, substrates with blocked N-termini, 23° C., pH 7.4, NC = no cleavage up to 1 mM substrate
Description: (§1) The relative cleavage rates by FAP and several dipeptidases of N-blocked (8) and unblocked (7) Gly-Pro dipeptide substrates were measured.
(§2) The cleavage (hydrolysis) rates of various C-terminal coumarin dipeptide substrates 7-16 by FAP and DPP-4 were measured (Tables 4 and 5). The amino-terminus of the substrates was unblocked and the amino acids were varied in Table 4. The amino-terminus of the substrates was blocked and the amino acids were varied in Table 5. To extend the results obtained with the dipeptide substrate library, kinetic parameters were determined for cleavage of the unblocked dipeptide substrates by FAP (Table 4). The catalytic efficiency (kcat/Km) for substrate cleavage was greatest with Ile-Pro-AFC, followed by Ala-Pro-, Gly-Pro- and Phe-Pro-AFC, consistent with the dipeptide substrate library results (FIG. 5). […] Kinetic constants for cleavage of Ala-Pro-AFC and Gly-Pro-AFC by DPP-4 were determined (Table 4). The catalytic efficiency for Ala-Pro-AFC hydrolysis was greater than that for Gly-Pro-AFC, and consistent with the dipeptide library.
(§3) Protease Assays—Protease activity was monitored continuously using a SpectraMax M2 microplate reader (Molecular Devices Corp., Sunnyvale Calif.) in the kinetic mode. Assays were conducted at 23° C. in 50 mM Tris (pH 7.4), 100 mM NaCl, 1 mM EDTA. The excitation/emission wavelengths for the different fluorogenic substrates were 360/460 nm (AMC), 400/505 nm (AFC), 340/425 nm (MNA), 340/510 nm (EDANS), and 337/425 nm (Abs). Standard curves of the appropriate fluorescent product versus concentration were used to convert relative fluorescence units to nmol of product produced. Substrates in the X-Pro-AMC library were used in rate assays at 5 μM final concentration. […] The kinetic parameters were calculated from Michaelis-Menten plots (V0 versus [S]) with nonlinear regression analysis using GraphPad software. kcat values were calculated under the assumption that each protease was 100% active.
(§4) When saturating amounts of substrate could not be achieved, catalytic efficiencies (kcat/Km) were determined under pseudo-first order conditions ([S]<<the estimated Km) and fit to the following equation: Ln[St/S0]=−kobst, where St is the concentration of substrate remaining at time t, S0 is the initial substrate concentration and kobs is the apparent first order substrate cleavage constant equal to (kcat/Km) times ET, the total enzyme concentration (Copeland, R. (2000) Enzymes, A Practical Introduction to Structure, Mechanism, and Data Analysis, 2nd Ed., John Wiley and Sons, Inc, New York). The linear relationship of Ln[St/S0] versus time allows calculation of kcat/Km by dividing the slope of the plot by ET.

[2] = substrate: NCC(=O)N1CCCC1C(=O)Nc1ccc2c(C(F)(F)F)c(CC(N)=O)c(=O)oc2c1; experiment: as above; type: biochemical; settings: other: DPP-4, substrates with unblocked N-termini, 23° C., pH 7.4
Description: as §1, §2, §3, §4

B1: DPP-4 (Homo sapiens) (protein)
chain: SRKTYTLTDYLKNTYRLKLYSLRWISDHEYLYKQENNILVFNAEYGNSSVFLENSTFDEFGHSINDYSISPDGQFILLEYNYVKQWRHSYTASYDIYDLNKRQLITEERIPNNTQWVTWSPVGHKLAYVWNNDIYVKIEPNLPSYRITWTGKEDIIYNGITDWVYEEEVFSAYSALWWSPNGTFLAYAQFNDTEVPLIEYSFYSDESLQYPKTVRVPYPKAGAVNPTVKFFVVNTDSLSSVTNATSIQITAPASMLIGDHYLCDVTWATQERISLQWLRRIQNYSVMDICDYDESSGRWNCLVARQHIEMSTTGWVGRFRPSEPHFTLDGNSFYKIISNEEGYRHICYFQIDKKDCTFITKGTWEVIGIEALTSDYLYYISNEYKGMPGGRNLYKIQLSDYTKVTCLSCELNPERCQYYSVSFSKEAKYYQLRCSGPGLPLYTLHSSVNDKGLRVLEDNSALDKMLQNVQMPSKKLDFIILNETKFWYQMILPPHFDKSKKYPLLLDVYAGPCSQKADTVFRLNWATYLASTENIIVASFDGRGSGYQGDKIMHAINRRLGTFEVEDQIEAARQFSKMGFVDNKRIAIWGWSYGGYVTSMVLGSGSGVFKCGIAVAPVSRWEYYDSVYTERYMGLPTPEDNLDHYRNSTVMSRAENFKQVEYLLIHGTADDNVHFQQSAQISKALVDVGVDFQAMWYTDEDHGIASSTAHQHIYTHMSHFIKQCFSLP
notes: DPP-4 (amino acids 39-766); FLAG (N); made in house; host or cells: 293 cells (secreted, purified from serum-free conditioned media)
With B1 the kcat [1] was less than 0.07 s⁻¹, the kcat/Km [1] was 36 ± 3 M⁻¹ s⁻¹ and the Km [2] was 76 ± 10 µM. It also gave a kcat [2] of 121 ± 5 s⁻¹ and a kcat/Km [2] of 1.6e+06 M⁻¹ s⁻¹.
